To fix the notation:
B1: AB1080scFv (scFv, V domains shown)
VH: EVQLVQSGGGVVQPGRSLRLSCAASGFTFSSYGMHWVRQAPGKCLEWVAVIWYDASNKYYGDSVKGRFTISRDNSKNTLYLQMNSLRDEDTAVYYCARRFTHLRGWYIEDYGLDVWGQGTTVTVSS
VL: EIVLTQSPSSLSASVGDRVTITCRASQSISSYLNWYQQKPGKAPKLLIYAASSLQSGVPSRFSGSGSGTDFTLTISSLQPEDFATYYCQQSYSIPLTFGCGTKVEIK
notes: scFv on yeast; also called AB1080 (yeast clone)
B2: AB1084scFv (scFv, V domains shown)
VH: B1 VH with S31M, H102R
VL: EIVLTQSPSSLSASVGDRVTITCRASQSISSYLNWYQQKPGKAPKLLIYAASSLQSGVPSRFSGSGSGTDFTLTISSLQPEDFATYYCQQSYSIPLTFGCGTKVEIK
notes: scFv on yeast; also called AB1084 (yeast clone)
B3: AB1081scFv (scFv, V domains shown)
VH: B1 VH with T28A, A55E, K76R, H102N, Y107I
VL: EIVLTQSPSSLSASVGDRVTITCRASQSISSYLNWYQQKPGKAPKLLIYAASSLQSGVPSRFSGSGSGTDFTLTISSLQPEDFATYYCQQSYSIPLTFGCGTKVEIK
notes: scFv on yeast; also called AB1081 (yeast clone)
B4: AB0681 (bispecific antibody, V domains shown)
VH: B1 VH with F27E, T28W, A55G, Y107I, L113M
VL: not shown
notes: also called AB0681-001
B5: Ianalumab-F3′ (bispecific antibody, human IgG1, kappa)
chain: DIVLTQSPATLSLSPGERATLSCRASQFILPEYLSWYQQKPGQAPRLLIYGSSSRATGVPARFSGSGSGTDFTLTISSLEPEDFAVYYCQQFYSSPLTFGCGTKVEIKGGGGSGGGGSGGGGSGGGGSQVQLQQSGPGLVKPSQTLSLTCAISGDSVSSNSAAWGWIRQSPGRCLEWLGRIYYRSKWYNSYAVSVKSRITINPDTSKNQFSLQLNSVTPEDTAVYYCARYQWVPKIGVFDSWGQGTLVTVSSASDKTHTCPPCPAPELLGGPSVFLFPPKPKDTLMISRTPEVTCVVVDVSHEDPEVKFNWYVDGVEVHNAKTKPREEQYNSTYRVVSVLTVLHQDWLNGKEYKCKVSNKALPAPIEKTISKAKGQPREPRVYTLPPCRDELTKNQVSLTCLVKGFYPSDIAVEWESNGQPENNYKTTPPVLVSDGSFTLYSKLTVDKSRWQQGNVFSCSVMHEALHNHYTQKSLSLSPG
heavy: EVQLVESGGGLVKPGGSLRLSCAASGFTFSSYSMNWVRQAPGKGLEWVSSISSSSSYIYYADSVKGRFTISRDNAKNSLYLQMNSLRAEDTAVYYCARGAPIGAAAGWFDPWGQGTLVTVSSASTKGPSVFPLAPSSKSTSGGTAALGCLVKDYFPEPVTVSWNSGALTSGVHTFPAVLQSSGLYSLSSVVTVPSSSLGTQTYICNVNHKPSNTKVDKKVEPKSCDKTHTCPPCPAPELLGGPSVFLFPPKPKDTLMISRTPEVTCVVVDVSHEDPEVKFNWYVDGVEVHNAKTKPREEQYNSTYRVVSVLTVLHQDWLNGKEYKCKVSNKALPAPIEKTISKAKGQPREPQVCTLPPSRDELTENQVSLTCLVKGFYPSDIAVEWESNGQPENNYKTTPPVLDSDGSFFLYSWLTVDKSRWQQGNVFSCSVMHEALHNHYTQKSLSLSPG
light: DIQMTQSPSSVSASVGDRVTITCRASQGISSWLAWYQQKPGKAPKLLIYAASSLQSGVPSRFSGSGSGTDFTLTISSLQPEDFATYYCQQGVSFPRTFGGGTKVEIKRTVAAPSVFIFPPSDEQLKSGTASVVCLLNNFYPREAKVQWKVDNALQSGNSQESVTEQDSKDSTYSLSSTLTLSKADYEKHKVYACEVTHQGLSSPVTKSFNRGEC
notes: F3′ TriNKET: BAFF-R scFv-Fc (chain S), NKG2D Fab heavy (chain H) and light (chain L); no ADCC-enhancing mutations; also called ianalumab-F3′ TriNKET; Tool-F3′
B6: hCOH-2-mAb (antibody, V domains shown)
VH: EVQLQESGPGLVKPSQTLSLTCTVSGDSITSGYWNWIRQHPGKGLEYIGYISYSGSTYYNPSLKSRVTISRDTSKNQYSLKLSSVTAADTAVYYCASPNYPFYAMDYWGQGTLVTVSS
VL: DIVLTQSPATLSLSPGERATLSCRASESVDNYGISFMNWFQQKPGQAPRLLIYAASNRATGIPARFSGSGSGTDFTLTISSLEPEDFAVYYCQQSKEVPWTFGGGTKVEIK
notes: Parental monoclonal antibody; also called Humanized mAb hCOH-2
B7: hCOH-2-2-Fab (bispecific antibody, human IgG1, kappa)
heavy 1: not shown
light 1: DIVLTQSPATLSLSPGERATLSCRASESVDNYGISFMNWFQQKPGQAPRLLIYAASNRATGIPARFSGSGSGTDFTLTISSLEPEDFAVYYCQQSKEVPWTFGGGTKVEIKRTVAAPSVFIFPPSDEQLKSGTASVVCLLNNFYPREAKVQWKVDNALQSGNSQESVTEQDSKDSTYSLSSTLTLSKADYEKHKVYACEVTHQGLSSPVTKSFNRGEC
heavy 2: not shown
light 2: B5 light
notes: 2-Fab TriNKET
B8: Hu9.1-73-F3′ (bispecific antibody, human IgG1, kappa)
chain: DIQMTQSPSSLSASVGDRVTITCKSSQSLLYSSNQNNYLAWYQQKPGKAPKLLIYWAQHLDSGVPSRFSGSGSGTDFTLTISSLQPEDFATYYCQQYYTYPYTFGCGTKVEIKGGGGSGGGGSGGGGSGGGGSEVQLVESGGGLVQPGGSLRLSCAASGLPMAGFYTSWVRQAPGKCLEWVGFIRDKANGYTTEYNPSVKGRFTISADTSKNTAYLQMNSLRAEDTAVYYCAQVRRALDYWGQGTLVTVSSASDKTHTCPPCPAPELLGGPSVFLFPPKPKDTLMISRTPEVTCVVVDVSHEDPEVKFNWYVDGVEVHNAKTKPREEQYNSTYRVVSVLTVLHQDWLNGKEYKCKVSNKALPAPIEKTISKAKGQPREPRVYTLPPCRDELTKNQVSLTCLVKGFYPSDIAVEWESNGQPENNYKTTPPVLVSDGSFTLYSKLTVDKSRWQQGNVFSCSVMHEALHNHYTQKSLSLSPG
heavy: B5 heavy
light: B5 light
notes: F3′ TriNKET; also called Hu9.1-73-F3′ TriNKET
B9: Ianalumab-2-Fab (bispecific antibody, human IgG1, kappa)
heavy 1: not shown
light 1: DIVLTQSPATLSLSPGERATLSCRASQFILPEYLSWYQQKPGQAPRLLIYGSSSRATGVPARFSGSGSGTDFTLTISSLEPEDFAVYYCQQFYSSPLTFGQGTKVEIKRTVAAPSVFIFPPSDEQLKSGTASVVCLLNNFYPREAKVQWKVDNALQSGNSQESVTEQDSKDSTYSLSSTLTLSKADYEKHKVYACEVTHQGLSSPVTKSFNRGEC
heavy 2: not shown
light 2: B5 light
notes: 2-Fab TriNKET: BAFF-R Fab arm and NKG2D (A49MI) Fab arm, F405L/K409R Fc
B10: hCOH-2-F3′ (bispecific antibody, human IgG1, kappa)
chain: DIVLTQSPATLSLSPGERATLSCRASESVDNYGISFMNWFQQKPGQAPRLLIYAASNRATGIPARFSGSGSGTDFTLTISSLEPEDFAVYYCQQSKEVPWTFGCGTKVEIKGGGGSGGGGSGGGGSGGGGSEVQLQESGPGLVKPSQTLSLTCTVSGDSITSGYWNWIRQHPGKCLEYIGYISYSGSTYYNPSLKSRVTISRDTSKNQYSLKLSSVTAADTAVYYCASPNYPFYAMDYWGQGTLVTVSSASDKTHTCPPCPAPELLGGPSVFLFPPKPKDTLMISRTPEVTCVVVDVSHEDPEVKFNWYVDGVEVHNAKTKPREEQYNSTYRVVSVLTVLHQDWLNGKEYKCKVSNKALPAPIEKTISKAKGQPREPRVYTLPPCRDELTKNQVSLTCLVKGFYPSDIAVEWESNGQPENNYKTTPPVLVSDGSFTLYSKLTVDKSRWQQGNVFSCSVMHEALHNHYTQKSLSLSPG
heavy: B5 heavy
light: B5 light
notes: F3′ TriNKET
B11: Hu9.1-73-2-Fab (bispecific antibody, human IgG1, kappa)
heavy 1: not shown
light 1: DIQMTQSPSSLSASVGDRVTITCKSSQSLLYSSNQNNYLAWYQQKPGKAPKLLIYWAQHLDSGVPSRFSGSGSGTDFTLTISSLQPEDFATYYCQQYYTYPYTFGQGTKVEIKRTVAAPSVFIFPPSDEQLKSGTASVVCLLNNFYPREAKVQWKVDNALQSGNSQESVTEQDSKDSTYSLSSTLTLSKADYEKHKVYACEVTHQGLSSPVTKSFNRGEC
heavy 2: not shown
light 2: B5 light
notes: 2-Fab TriNKET
B12: Hu9.1-73-mAb (antibody, V domains shown)
VH: EVQLVESGGGLVQPGGSLRLSCAASGLPMAGFYTSWVRQAPGKGLEWVGFIRDKANGYTTEYNPSVKGRFTISADTSKNTAYLQMNSLRAEDTAVYYCAQVRRALDYWGQGTLVTVSS
VL: DIQMTQSPSSLSASVGDRVTITCKSSQSLLYSSNQNNYLAWYQQKPGKAPKLLIYWAQHLDSGVPSRFSGSGSGTDFTLTISSLQPEDFATYYCQQYYTYPYTFGQGTKVEIK
notes: Parental monoclonal antibody; also called Genentech Hu9.1-73 parental mAb

The source of these data is patent publication US20240360223A1 (DRAGONFLY THERAPEUTICS, published 2024).

Residue numbers refer to the chain shown, from its start. In names and notes the source's numbering stands.

In general, EC50 refers to the concentration needed to bring the measured effect to its halfway point.

The first assay concerns the target T1, hBAFF-R-hFc-His fusion protein (human, UniProt Q96RJ3 1-78, biotinylated in the yeast display assays).
T1 construct: the whole entry is named; also called hBAFFR-Fc; biotinylated hBAFF-R-hFc-His
Kind of assay: yeast display flow cytometry after challenge: 100 pM hBAFFR-Fc biotin for 1hr at RT, then 1 mM nonbiotinylated hBAFFR-Fc (as printed on the sheet). (A flow cytometer gives signals particle by particle.)
With B1, the “Iana (percent of events in the drawn gate named Iana)” value turned out to be 23.4.

B2: the “Iana (percent of events in the drawn gate named Iana)” value was 7.4.

As to B3, the “Iana (percent of events in the drawn gate named Iana)” value amounted to 27.2.

A further assay concerns the target T2, cynomolgus monkey BAFF-R expressed on cells (cynomolgus monkey).
T2 construct: whole, on cells; also called cBAFF-R; cynoBAFF-R
Kind of assay: flow cytometry, cyno BAFF-R CHO cells.
The molecule B4 came in with an EC50 of 5600 pM.

B5 yielded an EC50 of 2900 pM.

Another assay concerns the target T3, human BAFF-R expressed on cells (human, UniProt Q96RJ3 1-184).
T3 construct: Cell surface BAFF-R, endogenous on B cell lines and primary B cells or overexpressed on isogenic CHO cells; also called hBAFF-R; hBAFF-R-CHO
Kind of assay: flow cytometry, human BAFF-R CHO cells.
B4 showed an EC50 of 5100 pM.

B5 registered an EC50 of 4300 pM.

A further assay concerns the target T3, human BAFF-R expressed on cells. Kind of assay: flow cytometry, RAJI cells. As for the experimental part:
The BAFF-R positive human B lymphoblastoid RAJI cell line was used to assess TriNKET binding to cell surface BAFF-R. Certain BAFF-R TriNKETs in the 2-Fab and F3′ formats, as described in the “exemplary multispecific binding proteins” subsection above, were diluted and incubated with Raji cells. Binding patterns of TriNKETs and parental monoclonal antibodies were detected using a fluorophore conjugated anti-human IgG secondary antibody. The cells were then incubated with a fluorophore conjugated anti-human IgG secondary antibody and were analyzed by flow cytometry. The mean fluorescence intensity (MFI) values were normalized to secondary antibody only controls to obtain fold over background (FOB) values.
Turning to B6, the response was half-maximal at 43 pM (EC50).

Take B5: the midpoint of the response, the EC50, lay at 361 pM.

Take B7: the EC50 was 942 pM.

Consider B8, for which it took 765 pM to reach a half-maximal effect (EC50).

With B9, the response was half-maximal at 115 pM (EC50).

With B10, the response was half-maximal at 893 pM (EC50).

On to B11, for which the response was half-maximal at 1050 pM (EC50).

Take B12: the EC50 was 379 pM.
